Substrate in data set [1]: NC(=O)C1=CN([C@@H]2O[C@H](COP(=O)(O)OP(=O)(O)OC[C@H]3O[C@@H](n4cnc5c(N)ncnc54)[C@H](OP(=O)(O)O)[C@@H]3O)[C@@H](O)[C@H]2O)C=CC1
Put plainly: purified protein, by the assay type.

Substrate in data set [2]: CP(=O)(O)CCC(=O)C(=O)O
The data set can be described thus: purified protein, by the assay type. As to conditions: other: PPO 2-10 mM, NADPH 1-5 mM, pH 7.4, 35° C., double-reciprocal plot.

Substrate in data set [3]: NC(=O)C1=CN([C@@H]2O[C@H](COP(=O)(O)OP(=O)(O)OC[C@H]3O[C@@H](n4cnc5c(N)ncnc54)[C@H](OP(=O)(O)O)[C@@H]3O)[C@@H](O)[C@H]2O)C=CC1
The data set can be described thus: Kinetic parameters of purified mutant PPTGDH-F188P. The data set is classed as biochemical, Pseudomonas moorei. As to conditions: other: PPO 2-10 mM, NADPH 1-5 mM, pH 7.4, 35° C., double-reciprocal plot. The method, then: (§1) 1. […] The mutant proteins were purified by Ni-NTA column(1.6×10 cm, Bio-Rad, the USA), and the specific operations were carried out as follows: (1)equilibrate a Ni-NTA column with 5 column volumes of a binding buffer(pH 8.0, 50 mM sodium phosphate buffer containing 0.3 M NaCl) until the baseline is steady; (2)load the sample with a flow rate of 1 mL/min with the amount of the loading sample of 25-40 mg/mL, thereby attaching the target protein to the Ni-NTA column; (3)wash the column with 6 column volumes of buffer A (pH 8.0, 50 mM sodium phosphate buffer containing 0.3 M NaCl and 30 mM imidazole) at a flow rate of 1 mL/min until the baseline is steady; (4)wash the column with buffer B (pH 8.0, 50 mM sodium phosphate buffer containing 0.3 M NaCl and 500 mM imidazole) at a flow rate of 1 mL/min, collect the target protein and dialyze overnight in a pH 7.5, 20 mM phosphate buffer, thereby obtaining the pure glufosinate-ammonium dehydrogenase; and (5)wash the Ni-NTA column with 5 column volumes of a binding buffer(pH 8.0, 50 mM sodium phosphate buffer containing 0.3 M NaCl) until the baseline is steady, and store the Ni-NTA column in 5 column volumes of ultrapure water containing 20% ethanol.
(§2) According to sequential mechanism in glufosinate-ammonium dehydrogenase's catalytic reaction, vmax, Km^A, Km^B can be calculated by a double-reciprocal plot, the results were shown in Table 4.

Substrate in data set [4]: CP(=O)(O)CCC(=O)C(=O)O
Put plainly: Kinetic parameters of purified mutant PPTGDH-F188P. The format is biochemical, Pseudomonas moorei. The settings on record: other: PPO 2-10 mM, NADPH 1-5 mM, pH 7.4, 35° C., double-reciprocal plot. How it is done: as §1, §2

Substrate in data set [5]: NC(=O)C1=CN([C@@H]2O[C@H](COP(=O)(O)OP(=O)(O)OC[C@H]3O[C@@H](n4cnc5c(N)ncnc54)[C@H](OP(=O)(O)O)[C@@H]3O)[C@@H](O)[C@H]2O)C=CC1
The data set can be described thus: Kinetic parameters of purified mutant PPTGDH-G239K. The data set is classed as biochemical, Pseudomonas moorei. As to conditions: other: PPO 2-10 mM, NADPH 1-5 mM, pH 7.4, 35° C., double-reciprocal plot. The method, then: as §1, §2

Substrate in data set [6]: CP(=O)(O)CCC(=O)C(=O)O
The data set can be described thus: Kinetic parameters of purified mutant PPTGDH-G239K. The format is biochemical, Pseudomonas moorei. The settings on record: other: PPO 2-10 mM, NADPH 1-5 mM, pH 7.4, 35° C., double-reciprocal plot. The method, then: as §1, §2

Substrate in data set [7]: NC(=O)C1=CN([C@@H]2O[C@H](COP(=O)(O)OP(=O)(O)OC[C@H]3O[C@@H](n4cnc5c(N)ncnc54)[C@H](OP(=O)(O)O)[C@@H]3O)[C@@H](O)[C@H]2O)C=CC1
The data set can be described thus: Kinetic parameters of purified mutant PPTGDH-F357G. The data set is classed as biochemical, Pseudomonas moorei. As to conditions: other: PPO 2-10 mM, NADPH 1-5 mM, pH 7.4, 35° C., double-reciprocal plot. The method, then:
as §1, §2

Substrate in data set [8]: CP(=O)(O)CCC(=O)C(=O)O
The data set can be described thus: Kinetic parameters of purified mutant PPTGDH-F357G. The format is biochemical, Pseudomonas moorei. The settings on record: other: PPO 2-10 mM, NADPH 1-5 mM, pH 7.4, 35° C., double-reciprocal plot. The method, then: as §1, §2

Substrate in data set [9]: NC(=O)C1=CN([C@@H]2O[C@H](COP(=O)(O)OP(=O)(O)OC[C@H]3O[C@@H](n4cnc5c(N)ncnc54)[C@H](OP(=O)(O)O)[C@@H]3O)[C@@H](O)[C@H]2O)C=CC1
Put plainly: Kinetic parameters of purified mutant PPTGDH-L107R-F188P-G239K. The format is biochemical, Pseudomonas moorei. The settings on record: other: PPO 2-10 mM, NADPH 1-5 mM, pH 7.4, 35° C., double-reciprocal plot. The method, then:
as §1, §2

Substrate in data set [10]: CP(=O)(O)CCC(=O)C(=O)O
Described as above. The data set is classed as biochemical, Pseudomonas moorei. As to conditions: other: PPO 2-10 mM, NADPH 1-5 mM, pH 7.4, 35° C., double-reciprocal plot. How it is done: as §1, §2

Substrate in data set [11]: NC(=O)C1=CN([C@@H]2O[C@H](COP(=O)(O)OP(=O)(O)OC[C@H]3O[C@@H](n4cnc5c(N)ncnc54)[C@H](OP(=O)(O)O)[C@@H]3O)[C@@H](O)[C@H]2O)C=CC1
The data set can be described thus: Kinetic parameters of purified mutant PPTGDH-L107R. As to conditions: other: PPO 2-10 mM, NADPH 1-5 mM, pH 7.4, 35° C., double-reciprocal plot. The data set is classed as biochemical, Pseudomonas moorei. The method, then: as §1, §2

Substrate in data set [12]: CP(=O)(O)CCC(=O)C(=O)O
The data set can be described thus: Kinetic parameters of purified mutant PPTGDH-L107R. As to conditions: other: PPO 2-10 mM, NADPH 1-5 mM, pH 7.4, 35° C., double-reciprocal plot. The data set is classed as biochemical, Pseudomonas moorei. The method, then:
as §1, §2

Substrate in data set [13]: NC(=O)C1=CN([C@@H]2O[C@H](COP(=O)(O)OP(=O)(O)OC[C@H]3O[C@@H](n4cnc5c(N)ncnc54)[C@H](OP(=O)(O)O)[C@@H]3O)[C@@H](O)[C@H]2O)C=CC1
The data set can be described thus: Kinetic parameters of purified mutant PPTGDH-L107R-F188P. The format is biochemical, Pseudomonas moorei. The settings on record: other: PPO 2-10 mM, NADPH 1-5 mM, pH 7.4, 35° C., double-reciprocal plot. How it is done: as §1, §2

Substrate in data set [14]: CP(=O)(O)CCC(=O)C(=O)O
Described as above. As to conditions: other: PPO 2-10 mM, NADPH 1-5 mM, pH 7.4, 35° C., double-reciprocal plot. The data set is classed as biochemical, Pseudomonas moorei. How it is done: as §1, §2

Where [15] appears, read: other: PPO 2-10 mM, NADPH 1-5 mM, pH 7.4, 35° C., double-reciprocal plot.

Changes are numbered by the printed parent chain. Names and notes keep the numbering of the source.

B1: Pseudomonas moorei glufosinate-ammonium dehydrogenase E3 (PPTGDH, PPTGDHE3, WP_090325311.1), wild type, SEQ ID NO: 6 (Pseudomonas moorei) (protein)
chain: MIESVESFLARLKKRDPDQPEFHQAVEEVLRSLWPFLEANPRYLTSGILERICEPERAIVFRVSWVDDQGKVQVNRGFRIQMNSAIGPYKGGLRFHPSVNLGVLKFLAFEQTFKNSLTSLPMGGGKGGSDFDPKGKSDAEVMRFCQAFMSELYRHIGADVDVPAGDIGVGAREIGFLFGQYKRLSNQFTSVLTGKGPSYGGSLIRPEATGFGCVYFAEEMLKRRGETVEGKRVAISGSGNVAQYAARKVMDLGGKVISLSDSEGTLYCESGLTEAQWQAVLELKNVQRGRISELAGRFGLEFLAGQRPWGLSCDIALPCATQNELDAEAARALLRNGCTCVAEGANMPTTLEAVDLFIEAGILFAPGKASNAGGVAVSGLEMSQNAMRLLWTGGEVDSKLHAIMQSIHHACVHYGEENGQVNYVKGANIAGFVKVADAMLAQGVV
In the case of B1, the Km in data set [1] (setting [15]) was found to be 120 µM. Also, the specificity constant (kcat/Km) in [1] (other: pH 7.4, 35° C.) is 395910 M⁻¹ s⁻¹. For the same protein, in data set [2], the Km amounted to 3120 µM, the kcat came out at 47.51 ± 2.05 s⁻¹ and the catalytic efficiency (kcat/Km) worked out at 15220 M⁻¹ s⁻¹.

B2: Pseudomonas moorei glufosinate-ammonium dehydrogenase E3 (SEQ ID NO: 6) variant PPTGDH-L107R-F188P-G239K-F357G, SEQ ID NO: 9 (Pseudomonas moorei; … (protein)
chain: B1 chain with L107R, F188P, G239K, F357G
For the protein B2, in [1] (setting [15]), the Km stood at 52 µM and the kcat/Km amounted to 1.3703e+07 M⁻¹ s⁻¹. Besides, in data set [2], the Km worked out at 2110 µM, the kcat was 712.6 ± 3.21 s⁻¹ and the kcat/Km worked out at 337730 M⁻¹ s⁻¹.

B3: Pseudomonas moorei glufosinate-ammonium dehydrogenase E3 (SEQ ID NO: 6) variant PPTGDH-F188P (Pseudomonas moorei; F188P) (protein)
chain: B1 chain with F188P
Consider B3, for which, in data set [3], the Km was 140 µM and the specificity constant (kcat/Km) is 239290 M⁻¹ s⁻¹. Further, in data set [4], the Km is 4160 µM, the catalytic constant (kcat) was found to be 33.50 ± 1.51 s⁻¹ and the kcat/Km is 8050 M⁻¹ s⁻¹.

B4: Pseudomonas moorei glufosinate-ammonium dehydrogenase E3 (SEQ ID NO: 6) variant PPTGDH-G239K (Pseudomonas moorei; G239K) (protein)
chain: B1 chain with G239K
For the protein B4, in data set [5], the Km is 68 µM and the kcat/Km was found to be 499700 M⁻¹ s⁻¹. Further, in data set [6], the Km amounted to 2530 µM, the kcat was determined as 33.98 ± 1.55 s⁻¹ and the kcat/Km worked out at 13430 M⁻¹ s⁻¹.

B5: Pseudomonas moorei glufosinate-ammonium dehydrogenase E3 (SEQ ID NO: 6) variant PPTGDH-F357G (Pseudomonas moorei; F357G) (protein)
chain: B1 chain with F357G
B5: in data set [7], the Km turned out to be 105 µM and the kcat/Km amounted to 536000 M⁻¹ s⁻¹. In data set [8], the Km was found to be 3350 µM, the kcat came out at 56.31 ± 1.80 s⁻¹ and the kcat/Km turned out to be 16808 M⁻¹ s⁻¹.

B6: Pseudomonas moorei glufosinate-ammonium dehydrogenase E3 (SEQ ID NO: 6) variant PPTGDH-L107R-F188P-G239K (Pseudomonas moorei; F188P/G239K/L107R) (protein)
chain: B1 chain with L107R, F188P, G239K
As to B6, in [9], the Km is 45 µM and the kcat/Km was found to be 1.35e+07 M⁻¹ s⁻¹. Besides, in data set [10], the Km turned out to be 2090 µM, the kcat came to 607.5 ± 4.02 s⁻¹ and the kcat/Km amounted to 290670 M⁻¹ s⁻¹.

B7: Pseudomonas moorei glufosinate-ammonium dehydrogenase E3 (SEQ ID NO: 6) variant PPTGDH-L107R (Pseudomonas moorei; L107R) (protein)
chain: B1 chain with L107R
B7: in data set [11], the Km was 102 µM and the kcat/Km came to 411960 M⁻¹ s⁻¹. In data set [12], the Km turned out to be 2430 µM, the kcat stood at 42.02 ± 2.47 s⁻¹ and the kcat/Km was found to be 17290 M⁻¹ s⁻¹.

B8: Pseudomonas moorei glufosinate-ammonium dehydrogenase E3 (SEQ ID NO: 6) variant PPTGDH-L107R-F188P (Pseudomonas moorei; F188P/L107R) (protein)
chain: B1 chain with L107R, F188P
Consider B8, for which, in data set [13], the Km was determined as 112 µM and the kcat/Km was determined as 599110 M⁻¹ s⁻¹. In [14], the Km is 3220 µM, the catalytic constant (kcat) is 67.10 ± 2.81 s⁻¹ and the kcat/Km was 20840 M⁻¹ s⁻¹.

What is called Km is the substrate concentration at which the rate is half of its maximum. One may read the kcat/Km as the second-order rate constant that governs catalysis at low substrate concentration. Broadly, the kcat is the maximal rate divided by the concentration of active sites.

For the origin of these results see patent US12031160B2, “Method for the production of glufosinate-ammonium” (ZHEJIANG UNIVERSITY OF TECHNOLOGY, priority 2018, dated 2024).
